The text below walks through data of the Immune Epitope Database (IEDB).

Assay [1] deals with HLA-A*03:01. Description: IEDB peptide-MHC binding, purified MHC/competitive/fluorescence; ≥ and ≤ were set here for values at or beyond the usual limits of such assays.
The target of assay [2] is HLA-A*11:01. The assay is described as above.
The next assay deals with HLA-A*24:02. The assay is described as above. As to conditions: source organism: Zaire ebolavirus.
Assay [3] deals with HLA-A*02:01. Described as above.
A further assay concerns the target HLA-A*68:01. The assay can be described thus: IEDB peptide-MHC binding, purified MHC/competitive/radioactivity; filed as Kd, often an IC50 or EC50 that approximates it; ≥ and ≤ were set here for values at or beyond the usual limits of such assays.
In another assay the target is HLA-A*33:01. The assay is described as above.
Assay [4] has as its target HLA-A*31:01. The description is as above.
For a further assay, the target named is HLA-A*02:19. Description: IEDB peptide-MHC binding, purified MHC/competitive/fluorescence; filed as Kd, often an IC50 or EC50 that approximates it; ≥ and ≤ were set here for values at or beyond the usual limits of such assays.
Assay [5] has as its target HLA-A*02:01. The assay is described as above.
The target in the next assay is HLA-B*51:01. Described as above. As to conditions: source organism: Mycobacterium tuberculosis C.
In assay [6] the target is HLA-A*03:01. The assay can be described thus: IEDB peptide-MHC binding, purified MHC/direct/fluorescence; filed as Kd, often an IC50 or EC50 that approximates it; ≥ and ≤ were set here for values at or beyond the usual limits of such assays. As to conditions: source organism: Mycobacterium tuberculosis C.
Another assay addresses HLA-B*48:01. Described as above.
The target of assay [7] is HLA-B*40:01. Described as above. As to conditions: source organism: Mycobacterium tuberculosis C.
In a further assay the target is HLA-B*18:01. The assay is described as above. As to conditions: source organism: Mycobacterium tuberculosis C.
The next assay addresses HLA-B*15:01. The assay is described as above. As to conditions: source organism: Mycobacterium tuberculosis C.
Assay [8] addresses HLA-B*44:02. The description is as above. As to conditions: source organism: Mycobacterium tuberculosis C.
A further assay deals with HLA-B*58:01. The description is as above. As to conditions: source organism: Mycobacterium tuberculosis C.
The target in assay [9] is HLA-B*08:01. The assay is described as above. As to conditions: source organism: Mycobacterium tuberculosis C.
Another assay concerns the target HLA-B*07:02. The description is as above. As to conditions: source organism: Mycobacterium tuberculosis C.
Assay [10] deals with HLA-A*01:01. The assay is described as above. As to conditions: source organism: Mycobacterium tuberculosis C.
Assay [11] addresses HLA-A*11:01. Described as above. As to conditions: source organism: Mycobacterium tuberculosis C.
In assay [12] the target is HLA-A*31:01. Described as above. As to conditions: source organism: Mycobacterium tuberculosis C.
Another assay has as its target HLA-B*46:01. The assay is described as above. As to conditions: source organism: Mycobacterium tuberculosis C.
The target of the next assay is HLA-B*57:01. Described as above.
Assay [13] has as its target HLA-A*03:01. Description: IEDB peptide-MHC binding, purified MHC/competitive/radioactivity; filed as Kd, often an IC50 or EC50 that approximates it; ≥ and ≤ were set here for values at or beyond the usual limits of such assays. As to conditions: source organism: Hepatitis C virus (isolate 1).
A further assay deals with HLA-A*02:06. Described as above. As to conditions: source organism: Hepatitis C virus (isolate 1).
The next assay addresses HLA-A*02:02. The assay is described as above. As to conditions: source organism: Hepatitis C virus (isolate 1).
The next assay deals with HLA-B*54:01. Described as above. As to conditions: source organism: Hepatitis C virus (isolate 1).
For assay [14], the target named is HLA-B*40:01. Described as above. As to conditions: source organism: Hepatitis C virus (isolate 1).
The target of another assay is HLA-B*53:01. The description is as above. As to conditions: source organism: Hepatitis C virus (isolate 1).
The target of assay [15] is HLA-B*44:02. Described as above. As to conditions: source organism: Hepatitis C virus (isolate 1).
In assay [16] the target is HLA-B*08:01. The assay is described as above. As to conditions: source organism: Hepatitis C virus (isolate 1).
Assay [17] concerns the target HLA-A*02:01. Described as above. As to conditions: source organism: Hepatitis C virus (isolate 1).
Another assay has as its target HLA-B*44:03. The description is as above. As to conditions: source organism: Hepatitis C virus (isolate 1).
The target in the next assay is HLA-A*02:03. The description is as above. As to conditions: source organism: Hepatitis C virus (isolate 1).
Assay [18] has as its target HLA-A*01:01. The assay is described as above. As to conditions: source organism: Hepatitis C virus (isolate 1).
Assay [19] concerns the target HLA-A*11:01. The assay is described as above. As to conditions: source organism: Hepatitis C virus (isolate 1).
A further assay has as its target HLA-A*68:02. The assay is described as above. As to conditions: source organism: Hepatitis C virus (isolate 1).
The next assay deals with HLA-B*40:02. The description is as above. As to conditions: source organism: Hepatitis C virus (isolate 1).
The target in another assay is HLA-B*15:17. The assay can be described thus: IEDB peptide-MHC binding, purified MHC/direct/fluorescence; filed as Kd, often an IC50 or EC50 that approximates it; ≥ and ≤ were set here for values at or beyond the usual limits of such assays. As to conditions: source organism: West Nile virus.
In assay [20] the target is HLA-A*01:01. The assay can be described thus: IEDB peptide-MHC binding, purified MHC/competitive/fluorescence; filed as Kd, often an IC50 or EC50 that approximates it; ≥ and ≤ were set here for values at or beyond the usual limits of such assays. As to conditions: source organism: Influenza A virus (A/equine/California/8560/2002(H3N8)).
Where [21] appears, read: source organism: Zaire ebolavirus.
The mark [22] stands for this setting: source organism: Vaccinia virus.
[23] abbreviates: source organism: Vaccinia virus Copenhagen.
The mark [24] stands for this setting: source organism: Vaccinia virus WR.
Where [25] appears, read: source organism: Burkholderia vietnamiensis G4.
[26] abbreviates: source organism: Mycobacterium tuberculosis C.
[27] abbreviates: source organism: Hepatitis C virus (isolate 1).
Setting [28] is: source organism: Bacillus anthracis str. A0488.
Where [29] appears, read: source organism: Sudan ebolavirus.

As to NRSTKGGQQ, the IC50 in the assay with HLA-A*03:01 [1] (setting [21]) was at least 286 µM; with HLA-A*11:01 [2] (setting [21]), at least 140 µM.

For the sequence TNAMVTLRK, the IC50 is 6.42 µM with HLA-A*03:01 [1] (setting [21]), at least 188 µM with HLA-A*24:02, at least 1090 µM with HLA-A*02:01 [3] (setting [21]) and 0.311 µM with HLA-A*11:01 [2] (setting [21]).

In the case of LEYKTLCDM, the results for the concentration for half-maximal inhibition (IC50) with HLA-A*03:01 [1] (setting [22]) and with HLA-A*11:01 [2] (setting [22]) were at least 289 µM and 44.8 µM, respectively.

Regarding LRTFSILNR, the IC50 is at least 111 µM in the assay with HLA-A*03:01 [1] (setting [21]), at least 248 µM with HLA-A*02:01 [3] (setting [21]) and 33.1 µM with HLA-A*11:01 [2] (setting [21]).

For the sequence LSVETITEK, the IC50 is at least 101 µM with HLA-A*03:01 [1] (setting [23]), at least 134 µM in the assay with HLA-A*02:01 [3] (setting [23]) and 6.6 µM with HLA-A*11:01 [2] (setting [23]). Moreover, the figures for the Kd with HLA-A*68:01 (setting [24]), in the assay with HLA-A*33:01 (setting [24]) and with HLA-A*31:01 [4] (setting [24]) were 0.261 µM, 1.52 µM and 2.92 µM, respectively.

For the sequence WFMTWQPNI, the equilibrium dissociation constant (Kd) with HLA-A*02:19 (setting [25]) worked out at 0.0528 µM; with HLA-A*02:01 [5] (setting [25]), 0.54 µM.

Consider KILMNFHQK, for which the half-maximal inhibitory concentration (IC50) with HLA-A*03:01 [1] (setting [21]) was 3.35 µM; with HLA-A*24:02 it was 50.3 µM; with HLA-A*02:01 [3] (setting [21]) it was at least 95.4 µM; with HLA-A*11:01 [2] (setting [21]) it was 0.441 µM.

In the case of TPKIRFWHV, the Kd in the assay with HLA-B*51:01, with HLA-A*03:01 [6], with HLA-B*48:01 (setting [26]), with HLA-B*40:01 [7], with HLA-B*18:01 and in the assay with HLA-B*15:01 was at least 20 µM each time. Further, the Kd was at least 20 µM in the assay with HLA-B*44:02 [8]; at least 20 µM in the assay with HLA-B*58:01; 0.0915 µM with HLA-B*08:01 [9]; at least 20 µM in the assay with HLA-B*07:02; at least 20 µM with HLA-A*01:01 [10]; at least 20 µM with HLA-A*11:01 [11]. The Kd with HLA-A*31:01 [12], with HLA-B*46:01 and with HLA-B*57:01 (setting [26]) was at least 20 µM in each case.

With HPNIEEVAL, the Kd with HLA-A*03:01 [13] is at least 78 µM; in the assay with HLA-A*02:06, at least 67.3 µM; in the assay with HLA-A*02:02, 4 µM; with HLA-B*54:01 it was 4.57 µM; with HLA-B*40:01 [14] it was at least 76.2 µM; with HLA-B*53:01, 0.163 µM. Moreover, the dissociation constant Kd was at least 78 µM with HLA-B*44:02 [15]; at least 57.9 µM with HLA-A*68:01 (setting [27]); at least 36 µM in the assay with HLA-B*08:01 [16]; at least 70.5 µM in the assay with HLA-A*02:01 [17]; at least 77.7 µM with HLA-A*33:01 (setting [27]); at least 48.2 µM in the assay with HLA-B*44:03. Besides, the Kd was 17.2 µM with HLA-A*02:03; 16 µM with HLA-A*01:01 [18]; at least 77.9 µM with HLA-A*11:01 [19]; at least 77.9 µM with HLA-A*31:01 [4] (setting [27]); at least 69.8 µM in the assay with HLA-A*68:02; at least 77.3 µM with HLA-B*40:02.

Turning to QIIHDFVDK, the concentration for half-maximal inhibition (IC50) was at least 97.5 µM with HLA-A*03:01 [1] (setting [21]), at least 262 µM in the assay with HLA-A*02:01 [3] (setting [21]) and 6.34 µM in the assay with HLA-A*11:01 [2] (setting [21]).

In the case of VLYYHMMKD, the 50% inhibitory concentration (IC50) with HLA-A*03:01 [1] (setting [21]) was determined as 26 µM; in the assay with HLA-A*02:01 [3] (setting [21]), 48.1 µM; in the assay with HLA-A*11:01 [2] (setting [21]), 12.6 µM.

On to ANCSSISIK, for which the IC50 with HLA-A*03:01 [1] (setting [23]) turned out to be 42.4 µM; with HLA-A*11:01 [2] (setting [23]), 2.78 µM.

In the case of ISGKSTDMW, the Kd with HLA-B*15:17 came to 0.123 µM; in the assay with HLA-B*57:01 (source organism: West Nile virus), 0.891 µM.

In turn, MTIASVPTSRY displayed a Kd with HLA-A*01:01 [20] of 2.04 µM.

As to DMNLEQWSV, the equilibrium dissociation constant (Kd) was 0.0117 µM with HLA-A*02:19 (setting [28]) and at least 20 µM with HLA-A*02:01 [5] (setting [28]).

EQGKQHAWL registered a Kd with HLA-B*48:01 (source organism: Burkholderia mallei ATCC 23344) of at least 20 µM.

Consider HIPGDTLFK, for which the IC50 in the assay with HLA-A*03:01 [1] (source organism: Variola virus) turned out to be 6.64 µM; in the assay with HLA-A*11:01 [2] (source organism: Variola virus), 0.735 µM.

In the case of LGLRKRSRR, the results for the IC50 with HLA-A*03:01 [1] (setting [29]) and with HLA-A*11:01 [2] (setting [29]) were 6.72 µM and 65.8 µM, respectively.

The IC50 is the midpoint of a concentration-inhibition curve. A low value points to higher potency. The Kd is a measure of binding affinity in units of concentration.
